Experimental findings from US20220332804A1 (CSL INNOVATION, published 2022) are described below.

What all share (assay): SPR, mAb captured, C2 mutant analyte;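 further: Anti-C2 mAbs captured on goat anti-human IgG Biacore CM5 chips, alanine or serine C2 surface mutants flowed over at 37 °C, double-referenced sensorgrams fitted to a 1:1 binding model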
Background: SPR reads the build-up and loss of mass on a sensor chip optically.

The target in one experiment is T1, human C2 Y328A (human, UniProt P06681 21-752).
T1 sequence: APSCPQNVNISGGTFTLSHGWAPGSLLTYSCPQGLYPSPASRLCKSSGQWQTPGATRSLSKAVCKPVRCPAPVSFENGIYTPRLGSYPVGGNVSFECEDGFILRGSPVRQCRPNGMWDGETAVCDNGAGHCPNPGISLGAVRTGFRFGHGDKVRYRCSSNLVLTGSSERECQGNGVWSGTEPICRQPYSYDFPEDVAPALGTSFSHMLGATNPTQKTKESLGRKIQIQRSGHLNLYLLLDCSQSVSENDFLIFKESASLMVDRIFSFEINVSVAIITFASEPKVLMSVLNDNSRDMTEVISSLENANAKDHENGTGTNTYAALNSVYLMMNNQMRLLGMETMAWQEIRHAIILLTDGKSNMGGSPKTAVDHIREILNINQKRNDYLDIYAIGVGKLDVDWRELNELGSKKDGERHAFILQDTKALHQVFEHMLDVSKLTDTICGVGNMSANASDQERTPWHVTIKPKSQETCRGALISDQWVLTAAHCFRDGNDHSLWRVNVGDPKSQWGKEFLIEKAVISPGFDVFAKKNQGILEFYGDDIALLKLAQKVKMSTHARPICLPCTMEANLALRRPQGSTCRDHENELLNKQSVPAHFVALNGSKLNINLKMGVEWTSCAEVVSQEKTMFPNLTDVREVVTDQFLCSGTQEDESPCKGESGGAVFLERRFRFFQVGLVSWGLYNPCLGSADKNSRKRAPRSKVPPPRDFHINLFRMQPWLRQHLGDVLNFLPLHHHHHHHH

The next experiment deals with T2, human C2 Q447A (human, UniProt P06681 21-752).
T2 sequence: T1 sequence with A308Y, Q427A

The target of the next experiment is T3, human C2 I438A (human, UniProt P06681 21-752).
T3 sequence: T1 sequence with A308Y, I418A

A further experiment addresses T4, human C2 E267A (human, UniProt P06681 21-752).
T4 sequence: T1 sequence with E247A, A308Y

Residue numbers refer to the chain shown, from its start.

B1: RF16-214 (antibody, V domains shown)
VH: EVQLLESGGGLVQPGGSLRLSCAASGFTFSWYQMMWVRQAPGKGLEWVSRIYPSGGGTAYADSVKGRFTISRDNSKNTLYLQMNSLRAEDTAVYYCARDAGYGDNWGQGTLVTVSS
VL: QSALTQPPSVSVSPGQTASITCSGDKLGEKYASWYQQKAGQSPVMVIYQDRKRPSGIPERFSGSNSGNTATLTISGTQAMDEADYYCQAWDTRAVVFGGGTKLTVLG
For the molecule B1, the Kd with human C2 Y328A is 196 nM; with human C2 Q447A, 133 nM; with human C2 I438A, 30.6 nM; with human C2 E267A, 26.2 nM.

By Kd is commonly meant the concentration at which binding is half-saturated. High values mean weaker binding, low ones tighter binding.
